The results in this text go back to patent US20230374157A1.

The koff is the first-order rate constant of dissociation. Broadly, the kon is a measure of how fast the partners come together. A high value points to fast association.

Assay [1] addresses His-tagged human HER3 extracellular domain (Acro ER3-H5223) (human) (UniProt P21860). In words: BLI, SI-1R12 covalently coupled to AR2G sensors, monomeric HER3 ECD in solution, 1:1 fit. On the technique in general: BLI is a label-free optical method that tracks binding on a fibre tip over time.
The target in assay [2] is His-tagged human EGFR extracellular domain (expressed and purified in-house) (human) (UniProt P00533). The experiment in a line: BLI, antibody on AHC tips, monomeric EGFR ECD in solution, 1:1 fit.
In assay [3] the target is His-tagged human HER3 extracellular domain (Acro ER3-H5223) (human) (UniProt P21860). In words: BLI, antibody on AHC tips, monomeric HER3 ECD in solution, 1:1 fit.
The target of assay [4] is biotinylated human EGFR extracellular domain (Acro EGF-H82E3) (human) (UniProt P00533). In words: BLI avidity format, biotinylated EGFR ECD on SA sensors, antibody in solution, 1:1 fit.
The target in assay [5] is human His-tagged HER3 extracellular domain (in-house expressed) (human) (UniProt P21860). The experiment in a line: BLI sandwich assay, antibody held on immobilized biotinylated EGFR, 500 nM HER3 ECD in solution, 1:1 fit.

SI-1X4.2, nimotuzumab-based EGFR x HER3 bispecific antibody with MM-111 anti-HER3 scFv, sequence (heavy): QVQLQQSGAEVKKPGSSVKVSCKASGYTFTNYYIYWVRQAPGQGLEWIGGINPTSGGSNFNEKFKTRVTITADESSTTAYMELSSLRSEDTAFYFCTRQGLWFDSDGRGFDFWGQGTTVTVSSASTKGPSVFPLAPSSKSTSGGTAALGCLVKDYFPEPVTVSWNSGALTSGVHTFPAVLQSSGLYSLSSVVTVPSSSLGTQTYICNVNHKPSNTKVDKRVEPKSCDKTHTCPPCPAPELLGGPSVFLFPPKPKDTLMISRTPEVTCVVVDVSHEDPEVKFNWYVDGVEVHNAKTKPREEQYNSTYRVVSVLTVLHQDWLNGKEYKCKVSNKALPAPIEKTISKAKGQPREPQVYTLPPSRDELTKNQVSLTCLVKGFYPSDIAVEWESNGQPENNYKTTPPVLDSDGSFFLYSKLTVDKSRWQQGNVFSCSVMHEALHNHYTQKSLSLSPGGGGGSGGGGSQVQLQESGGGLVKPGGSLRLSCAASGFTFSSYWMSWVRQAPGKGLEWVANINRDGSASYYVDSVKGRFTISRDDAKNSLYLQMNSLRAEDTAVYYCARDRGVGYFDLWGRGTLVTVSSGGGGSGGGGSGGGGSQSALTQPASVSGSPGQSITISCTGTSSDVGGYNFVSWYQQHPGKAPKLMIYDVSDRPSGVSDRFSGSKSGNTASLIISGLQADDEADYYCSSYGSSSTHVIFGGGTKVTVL
SI-1X4.2, nimotuzumab-based EGFR x HER3 bispecific antibody with MM-111 anti-HER3 scFv, sequence (light): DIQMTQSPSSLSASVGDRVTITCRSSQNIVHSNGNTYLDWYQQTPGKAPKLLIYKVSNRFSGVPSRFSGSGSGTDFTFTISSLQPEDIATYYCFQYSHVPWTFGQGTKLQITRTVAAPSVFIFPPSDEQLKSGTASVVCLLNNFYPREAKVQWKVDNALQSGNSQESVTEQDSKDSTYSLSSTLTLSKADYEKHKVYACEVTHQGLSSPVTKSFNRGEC

For “SI-1R12 (MM-111), HER2 x HER3 bispecific human serum albumin fusion (bispecific antibody)”, in assay [1], the Kd stood at 95.6 nM, the koff was 0.0422 s⁻¹ and the kon was 441000 M⁻¹ s⁻¹.
As to “SI-1X4.2, nimotuzumab-based EGFR x HER3 bispecific antibody with MM-111 anti-HER3 scFv”, the Kd in assay [2] was determined as 18.8 nM; in assay [3] it was 146 nM; in assay [4], 0.398 nM; in assay [5], 165 nM. Moreover, the koff in assay [2] was determined as 0.00202 s⁻¹; in assay [3], 0.038 s⁻¹; in assay [4] it was 4.25e-05 s⁻¹; in assay [5], 0.0459 s⁻¹. Besides, the kon in assay [2] was 108000 M⁻¹ s⁻¹; in assay [3] it was 260000 M⁻¹ s⁻¹; in assay [4] it was 107000 M⁻¹ s⁻¹; in assay [5] it was 279000 M⁻¹ s⁻¹.
“SI-1X6.4, bispecific tetravalent anti-EGFR x HER3 antibody (cetuximab variable regions with mouse framework, MM-111 anti-HER3 scFv) (bispecific antibody)”: the Kd in assay [2] worked out at 5.38 nM; in assay [3], 107 nM; in assay [5], 617 nM.
Taken in the same sequence, the figures for “SI-1X2, panitumumab-based EGFR x HER3 bispecific antibody with MM-111 anti-HER3 scFv” were 2.77 nM, 131 nM and 770 nM.
